Assay results from CN112980885A (HENGYI BIOMEDICAL TECH SHANGHAI CO LTD, dated 2021).
Positions count from the first letter of the chain named.

Molecular target: 真实SARS-CoV-2(活病毒)
Test: cell-based or functional assay

B1: 抗体37G2 (antibody, V domains shown)
VH: QVQLVQSGAEVKKPGSSVKVSCKASGGTFSSYAITWVRQAPGQGLEWMGGIIPIFGTANFAQKFQGRVTITADESTSTAYMELSSLRSEDTAVYYCAHLGGFADPFDYWGQGTLVTVSS
VL: EIVLTQSPATLSLSPGERATLSCRASQSVSNYLAWYQQKAGQAPRVLIYDAFNRATGIPARFSGSGSGTDFTLTISSLEPEDFAVYYCQQRSNWPPRITFGQGTRLEIK
EC50 (活病毒在Vero-E6细胞中的活体外中和分析): 1.37 µg/mL

B2: 抗体31C2 (antibody, V domains shown)
VH: QVQLVQSGAEVKKPGSSVKVSCKASGGTFSSYAISWVRQAPGQGLEWMGGIIPIFGTTNYAQKFQGRVTITADESTSTAYMELNSLRSEDTAVYYCAGRSAYGDKGYYFDYWGQGTLVTVSS
VL: B1 VL with Y32F, A40P, V46L, F52S, E79Q, R97Q, I98E, R105K, L106V
EC50 (活病毒在Vero-E6细胞中的活体外中和分析): 0.57 µg/mL

B3: 抗体15A7 (antibody, V domains shown)
VH: QVQLVQSGAEVKKPGASVKVSCKASGYTFTSYDINWVRQASGQGLEWMGWMNPNSANPGYAQKFQGRVTMTRNTSISTAFMELSSLRSDDTAVYYCARARVTIHYDILTGYYSNAFDIWGQGTMVAVSS
VL: DIQMTQSPSSLSASVGDRVTITCRASQTISSYLNWYQQKPGKAPKLLIYAASSLQSGVPSRFSGSGSGADFTLTISSLQPEDFATYYCQQSYTTFMYTFGQGTMLEIK
EC50 (活病毒在Vero-E6细胞中的活体外中和分析): 0.61 µg/mL
